Laboratory results reported in US20240092841A1.

Legend:
Test in all cases: co-IP with agarose-bound AvFc from H460 whole-cell lysate, mass spectrometry
[1] = target: Tetratricopeptide repeat protein 13 (Q8NBP0-2) (human) (UniProt Q8NBP0)
[2] = target: Laminin subunit beta-1 (human) (UniProt P07942)
Agrin (human) = Agrin (human) (UniProt O00468)
[3] = target: Cation-dependent mannose-6-phosphate receptor (human) (UniProt P20645)
[4] = target: Scavenger receptor class A member 5 (human) (UniProt Q6ZMJ2)
[5] = target: Urokinase plasminogen activator surface receptor (human) (UniProt Q03405)
[6] = target: Neutral amino acid transporter B (0) (human) (UniProt Q15758)
[7] = target: 4F2 cell-surface antigen heavy chain (human) (UniProt P08195)
[8] = target: Protocadherin Fat 1 (human) (UniProt Q14517)
[9] = target: Insulin-like growth factor 1 receptor (human) (UniProt P08069)
Integrin beta-5 (human) = Integrin beta-5 (human) (UniProt P18084)
[10] = target: Solute carrier family 2, facilitated glucose transporter member 1 (human) (UniProt P11166)
UniProt P11166, sequence (P11166 whole entry): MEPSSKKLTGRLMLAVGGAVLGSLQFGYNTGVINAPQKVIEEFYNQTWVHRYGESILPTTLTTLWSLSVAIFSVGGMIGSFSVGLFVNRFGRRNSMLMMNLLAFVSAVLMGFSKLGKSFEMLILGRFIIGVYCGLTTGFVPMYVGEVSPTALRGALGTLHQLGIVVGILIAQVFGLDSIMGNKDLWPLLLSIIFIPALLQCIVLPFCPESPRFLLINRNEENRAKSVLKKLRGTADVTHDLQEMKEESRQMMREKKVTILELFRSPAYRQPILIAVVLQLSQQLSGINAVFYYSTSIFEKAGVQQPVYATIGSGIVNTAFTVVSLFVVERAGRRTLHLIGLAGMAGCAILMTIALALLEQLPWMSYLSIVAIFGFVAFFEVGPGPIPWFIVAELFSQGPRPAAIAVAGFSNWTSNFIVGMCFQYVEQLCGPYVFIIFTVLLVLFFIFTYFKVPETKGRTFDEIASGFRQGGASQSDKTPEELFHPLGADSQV

Renin receptor (human) = Renin receptor (human) (UniProt O75787)
[11] = target: Laminin subunit alpha-5 (human) (UniProt O15230)
Filamin-A (human) = Filamin-A (human) (UniProt P21333)
UniProt P21333, sequence (P21333 other isoform, or with tags, fused parts or gaps limits assumed): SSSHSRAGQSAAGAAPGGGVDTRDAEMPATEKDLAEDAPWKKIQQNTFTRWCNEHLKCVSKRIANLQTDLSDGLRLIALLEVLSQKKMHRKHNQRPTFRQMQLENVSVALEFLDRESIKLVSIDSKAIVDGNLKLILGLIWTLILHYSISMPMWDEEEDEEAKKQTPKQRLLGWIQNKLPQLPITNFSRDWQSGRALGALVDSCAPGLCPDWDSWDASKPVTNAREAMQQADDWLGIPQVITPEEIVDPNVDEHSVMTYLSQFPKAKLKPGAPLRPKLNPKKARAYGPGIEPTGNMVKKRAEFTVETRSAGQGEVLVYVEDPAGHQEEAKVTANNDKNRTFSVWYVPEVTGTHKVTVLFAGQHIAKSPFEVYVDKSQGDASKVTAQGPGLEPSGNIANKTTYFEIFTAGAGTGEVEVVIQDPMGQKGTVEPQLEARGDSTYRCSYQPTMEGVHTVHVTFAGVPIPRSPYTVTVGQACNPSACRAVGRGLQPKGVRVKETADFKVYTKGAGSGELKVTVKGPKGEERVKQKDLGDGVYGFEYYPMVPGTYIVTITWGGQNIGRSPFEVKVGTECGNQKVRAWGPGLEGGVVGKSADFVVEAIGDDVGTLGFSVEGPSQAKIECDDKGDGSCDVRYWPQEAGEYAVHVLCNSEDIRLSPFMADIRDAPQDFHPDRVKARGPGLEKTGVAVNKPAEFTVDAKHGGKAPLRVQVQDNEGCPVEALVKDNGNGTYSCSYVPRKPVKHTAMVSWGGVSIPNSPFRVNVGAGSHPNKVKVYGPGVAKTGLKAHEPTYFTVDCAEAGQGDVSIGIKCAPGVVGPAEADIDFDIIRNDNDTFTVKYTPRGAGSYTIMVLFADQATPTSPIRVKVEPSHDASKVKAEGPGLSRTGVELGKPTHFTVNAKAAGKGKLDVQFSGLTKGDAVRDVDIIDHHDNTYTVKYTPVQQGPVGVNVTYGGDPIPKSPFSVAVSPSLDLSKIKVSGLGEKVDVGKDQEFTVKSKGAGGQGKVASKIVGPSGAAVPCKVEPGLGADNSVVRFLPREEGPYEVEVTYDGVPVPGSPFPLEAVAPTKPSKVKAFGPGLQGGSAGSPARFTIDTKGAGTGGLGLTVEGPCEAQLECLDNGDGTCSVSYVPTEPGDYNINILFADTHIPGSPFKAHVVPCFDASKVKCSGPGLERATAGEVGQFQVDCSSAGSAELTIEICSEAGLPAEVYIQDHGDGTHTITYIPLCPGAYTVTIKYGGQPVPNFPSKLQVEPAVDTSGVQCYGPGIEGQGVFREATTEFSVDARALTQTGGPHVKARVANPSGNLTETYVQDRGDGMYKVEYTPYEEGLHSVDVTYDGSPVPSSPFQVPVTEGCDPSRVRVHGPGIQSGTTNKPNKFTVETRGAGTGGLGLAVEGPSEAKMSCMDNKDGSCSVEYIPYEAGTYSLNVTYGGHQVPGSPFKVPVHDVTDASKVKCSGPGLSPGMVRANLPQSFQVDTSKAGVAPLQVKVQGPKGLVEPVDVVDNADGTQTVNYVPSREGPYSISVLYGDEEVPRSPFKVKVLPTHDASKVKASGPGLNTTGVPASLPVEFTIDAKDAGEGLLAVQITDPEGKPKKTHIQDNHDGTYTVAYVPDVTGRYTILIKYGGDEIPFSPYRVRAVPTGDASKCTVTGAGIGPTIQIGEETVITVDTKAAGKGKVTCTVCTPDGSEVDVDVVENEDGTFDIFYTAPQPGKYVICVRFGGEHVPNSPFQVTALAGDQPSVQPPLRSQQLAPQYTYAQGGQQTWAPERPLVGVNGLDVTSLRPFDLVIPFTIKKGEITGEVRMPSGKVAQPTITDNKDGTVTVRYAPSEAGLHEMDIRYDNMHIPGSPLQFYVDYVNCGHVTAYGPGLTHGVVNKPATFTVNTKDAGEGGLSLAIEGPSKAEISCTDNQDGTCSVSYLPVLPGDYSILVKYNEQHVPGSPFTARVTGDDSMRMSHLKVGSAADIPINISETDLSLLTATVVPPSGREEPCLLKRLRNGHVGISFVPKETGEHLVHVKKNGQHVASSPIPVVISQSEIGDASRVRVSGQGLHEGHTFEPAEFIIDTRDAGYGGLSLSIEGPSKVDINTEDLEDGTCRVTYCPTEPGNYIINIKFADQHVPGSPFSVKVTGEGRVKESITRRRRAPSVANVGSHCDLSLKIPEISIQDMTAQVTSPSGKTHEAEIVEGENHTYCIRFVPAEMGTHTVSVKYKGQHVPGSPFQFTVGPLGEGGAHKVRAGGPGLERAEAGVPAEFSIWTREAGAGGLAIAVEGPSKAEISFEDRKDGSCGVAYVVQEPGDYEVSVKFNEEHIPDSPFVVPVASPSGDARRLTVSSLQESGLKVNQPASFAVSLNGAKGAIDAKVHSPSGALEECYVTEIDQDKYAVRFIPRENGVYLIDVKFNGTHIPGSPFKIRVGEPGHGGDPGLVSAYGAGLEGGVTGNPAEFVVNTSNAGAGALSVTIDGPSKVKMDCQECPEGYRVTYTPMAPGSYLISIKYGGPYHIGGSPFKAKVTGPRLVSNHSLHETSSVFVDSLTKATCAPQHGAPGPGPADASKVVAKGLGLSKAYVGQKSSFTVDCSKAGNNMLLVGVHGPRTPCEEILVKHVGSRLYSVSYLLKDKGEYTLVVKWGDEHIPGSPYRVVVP

[12] = target: Magnesium transporter protein 1 (human) (UniProt Q9H0U3)
[13] = target: Secretory carrier-associated membrane protein 3 (human) (UniProt O14828)
[14] = target: Laminin subunit beta-2 (human) (UniProt P55268)
[15] = target: Prolow-density lipoprotein receptor-related protein 1 (human) (UniProt Q07954)
Integrin alpha-2 (human) = Integrin alpha-2 (human) (UniProt P17301)
[16] = target: Laminin subunit alpha-1 (human) (UniProt P25391)
[17] = target: Solute carrier family 12 member 7 (human) (UniProt Q9Y666)
[18] = target: Epidermal growth factor receptor (human) (UniProt P00533)
Plexin-B2 (human) = Plexin-B2 (human) (UniProt O15031)
UniProt O15031, sequence (O15031 20-1838 limits assumed): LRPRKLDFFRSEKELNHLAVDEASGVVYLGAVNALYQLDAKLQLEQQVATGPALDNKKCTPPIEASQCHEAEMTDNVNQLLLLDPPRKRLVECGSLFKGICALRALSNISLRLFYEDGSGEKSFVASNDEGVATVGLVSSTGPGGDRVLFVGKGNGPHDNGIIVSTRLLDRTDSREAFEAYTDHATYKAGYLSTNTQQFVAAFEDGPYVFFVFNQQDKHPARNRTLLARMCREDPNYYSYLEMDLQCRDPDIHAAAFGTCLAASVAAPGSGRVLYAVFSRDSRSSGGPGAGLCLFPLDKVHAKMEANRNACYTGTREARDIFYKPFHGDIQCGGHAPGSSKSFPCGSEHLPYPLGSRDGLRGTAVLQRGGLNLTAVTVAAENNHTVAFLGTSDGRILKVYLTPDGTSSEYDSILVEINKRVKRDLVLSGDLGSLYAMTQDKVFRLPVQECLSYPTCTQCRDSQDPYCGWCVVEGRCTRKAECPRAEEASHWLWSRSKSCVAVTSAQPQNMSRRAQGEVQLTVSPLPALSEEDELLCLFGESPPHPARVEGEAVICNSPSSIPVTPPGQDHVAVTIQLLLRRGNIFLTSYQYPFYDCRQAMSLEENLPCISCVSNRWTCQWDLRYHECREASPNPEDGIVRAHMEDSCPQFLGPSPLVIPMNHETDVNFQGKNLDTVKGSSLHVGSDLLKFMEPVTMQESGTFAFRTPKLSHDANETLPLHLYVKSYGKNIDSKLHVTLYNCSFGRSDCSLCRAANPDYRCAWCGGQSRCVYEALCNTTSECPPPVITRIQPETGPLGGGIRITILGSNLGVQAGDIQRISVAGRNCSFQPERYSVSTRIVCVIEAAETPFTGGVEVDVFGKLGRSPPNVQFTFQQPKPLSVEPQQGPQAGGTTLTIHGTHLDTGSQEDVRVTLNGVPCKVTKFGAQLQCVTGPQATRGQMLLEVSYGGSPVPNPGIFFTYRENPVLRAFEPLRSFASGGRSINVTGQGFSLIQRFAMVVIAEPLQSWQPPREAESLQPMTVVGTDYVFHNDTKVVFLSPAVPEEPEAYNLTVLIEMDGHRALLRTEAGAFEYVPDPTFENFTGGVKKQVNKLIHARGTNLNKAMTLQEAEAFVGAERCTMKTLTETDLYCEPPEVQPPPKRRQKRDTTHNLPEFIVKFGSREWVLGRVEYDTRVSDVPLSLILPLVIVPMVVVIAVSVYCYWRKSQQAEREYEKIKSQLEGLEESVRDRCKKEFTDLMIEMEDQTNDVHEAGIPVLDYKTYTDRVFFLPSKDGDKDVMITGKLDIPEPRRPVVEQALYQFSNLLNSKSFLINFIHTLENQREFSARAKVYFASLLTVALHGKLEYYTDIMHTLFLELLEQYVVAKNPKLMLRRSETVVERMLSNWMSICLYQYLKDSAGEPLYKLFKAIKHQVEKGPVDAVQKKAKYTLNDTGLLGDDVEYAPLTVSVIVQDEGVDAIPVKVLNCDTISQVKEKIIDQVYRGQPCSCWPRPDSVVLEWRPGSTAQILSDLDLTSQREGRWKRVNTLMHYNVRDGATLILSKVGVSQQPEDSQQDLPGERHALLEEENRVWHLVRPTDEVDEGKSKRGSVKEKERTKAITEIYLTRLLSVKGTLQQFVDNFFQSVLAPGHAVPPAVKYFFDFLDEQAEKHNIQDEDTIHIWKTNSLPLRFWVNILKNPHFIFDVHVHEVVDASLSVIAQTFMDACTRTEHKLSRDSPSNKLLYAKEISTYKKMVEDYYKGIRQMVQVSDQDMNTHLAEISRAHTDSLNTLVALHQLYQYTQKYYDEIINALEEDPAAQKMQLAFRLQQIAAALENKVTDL

Nidogen-2 (human) = Nidogen-2 (human) (UniProt Q14112)
Serpin H1 (human) = Serpin H1 (human) (UniProt P50454)
[19] = target: Galectin-3-binding protein (human) (UniProt Q08380)

Substance Avaren-Fc (AvFc) (Fc fusion) has a Percentage of Total Spectra (%) [1] of 0.11%, a Percentage of Total Spectra (%) [2] of 0.31% and a Percentage of Total Spectra (%) (Agrin (human)) of 0.15%. For the same substance, the Percentage of Total Spectra (%) [3] was 0.025%, the Percentage of Total Spectra (%) [4] was 0.099% and the Percentage of Total Spectra (%) [5] was 0.066%. It also gave a Percentage of Total Spectra (%) [6] of 0.05%, a Percentage of Total Spectra (%) [7] of 0.091% and a Percentage of Total Spectra (%) [8] of 0.058%. It also gave a Percentage of Total Spectra (%) [9] of 0.033%, a Percentage of Total Spectra (%) (Integrin beta-5 (human)) of 0.12% and a Percentage of Total Spectra (%) [10] of 0.033%. It also gave a Percentage of Total Spectra (%) (Renin receptor (human)) of 0.066%, a Percentage of Total Spectra (%) [11] of 0.23% and a Percentage of Total Spectra (%) (Filamin-A (human)) of 0.13%. It also gave a Percentage of Total Spectra (%) [12] of 0.017%, a Percentage of Total Spectra (%) [13] of 0.083% and a Percentage of Total Spectra (%) [14] of 0.16%. For the same substance, the Percentage of Total Spectra (%) [15] was 0.017%, the Percentage of Total Spectra (%) (Integrin alpha-2 (human)) was 0.0083% and the Percentage of Total Spectra (%) [16] was 0.35%. It also gave a Percentage of Total Spectra (%) [17] of 0.0083%, a Percentage of Total Spectra (%) [18] of 0.058% and a Percentage of Total Spectra (%) (Plexin-B2 (human)) of 0.13%. For the same substance, the Percentage of Total Spectra (%) (Nidogen-2 (human)) was 0.066%, the Percentage of Total Spectra (%) (Serpin H1 (human)) was 0.058% and the Percentage of Total Spectra (%) [19] was 0.17%.
